These results are taken from patent US20240327522A1 (Genentech, published 2024).

Assay [1] concerns the target T1, recombinant cynomolgus monkey αvβ8 protein (PARS-19393) (cynomolgus monkey, UniProt A0A2K5WCD3 31-992; G7P0S0 43-684).
T1 construct: also called cyno.aVb8-19393; cyno.aVb8
Put plainly: SPR binding assay, experiment 1, antibody as ligand, aVb8 as sample.

The target in assay [2] is T2, recombinant human αvβ8 protein (PARS-17102) (human).
T2 construct: also called hu.aVb8.17102; not shown: C-terminal acid/basic coils and any purification tags
T2 alpha: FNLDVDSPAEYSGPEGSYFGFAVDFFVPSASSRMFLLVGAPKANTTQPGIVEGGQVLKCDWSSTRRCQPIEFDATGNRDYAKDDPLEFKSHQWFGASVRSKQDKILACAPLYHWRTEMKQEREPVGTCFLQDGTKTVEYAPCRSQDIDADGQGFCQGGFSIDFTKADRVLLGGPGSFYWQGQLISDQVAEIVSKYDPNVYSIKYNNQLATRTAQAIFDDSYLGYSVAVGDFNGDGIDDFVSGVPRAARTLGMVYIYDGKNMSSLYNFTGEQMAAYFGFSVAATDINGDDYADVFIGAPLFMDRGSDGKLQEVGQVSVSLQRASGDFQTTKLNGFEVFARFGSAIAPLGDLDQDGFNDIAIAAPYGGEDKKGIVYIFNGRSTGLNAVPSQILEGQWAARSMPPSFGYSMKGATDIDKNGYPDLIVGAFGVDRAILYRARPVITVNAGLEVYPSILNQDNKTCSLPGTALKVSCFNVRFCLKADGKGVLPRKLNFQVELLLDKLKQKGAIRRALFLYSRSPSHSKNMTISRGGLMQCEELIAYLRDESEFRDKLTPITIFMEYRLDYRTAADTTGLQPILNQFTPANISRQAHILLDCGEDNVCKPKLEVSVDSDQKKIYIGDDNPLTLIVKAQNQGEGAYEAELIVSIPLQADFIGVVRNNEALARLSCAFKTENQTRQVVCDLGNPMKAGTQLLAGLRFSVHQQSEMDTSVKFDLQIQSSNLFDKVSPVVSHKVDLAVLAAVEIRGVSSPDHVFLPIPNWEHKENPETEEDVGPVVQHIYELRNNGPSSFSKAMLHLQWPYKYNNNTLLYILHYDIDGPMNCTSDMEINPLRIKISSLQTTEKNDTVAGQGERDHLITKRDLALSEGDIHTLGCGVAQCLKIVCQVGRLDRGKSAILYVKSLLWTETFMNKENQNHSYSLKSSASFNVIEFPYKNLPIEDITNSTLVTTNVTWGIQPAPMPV
T2 beta: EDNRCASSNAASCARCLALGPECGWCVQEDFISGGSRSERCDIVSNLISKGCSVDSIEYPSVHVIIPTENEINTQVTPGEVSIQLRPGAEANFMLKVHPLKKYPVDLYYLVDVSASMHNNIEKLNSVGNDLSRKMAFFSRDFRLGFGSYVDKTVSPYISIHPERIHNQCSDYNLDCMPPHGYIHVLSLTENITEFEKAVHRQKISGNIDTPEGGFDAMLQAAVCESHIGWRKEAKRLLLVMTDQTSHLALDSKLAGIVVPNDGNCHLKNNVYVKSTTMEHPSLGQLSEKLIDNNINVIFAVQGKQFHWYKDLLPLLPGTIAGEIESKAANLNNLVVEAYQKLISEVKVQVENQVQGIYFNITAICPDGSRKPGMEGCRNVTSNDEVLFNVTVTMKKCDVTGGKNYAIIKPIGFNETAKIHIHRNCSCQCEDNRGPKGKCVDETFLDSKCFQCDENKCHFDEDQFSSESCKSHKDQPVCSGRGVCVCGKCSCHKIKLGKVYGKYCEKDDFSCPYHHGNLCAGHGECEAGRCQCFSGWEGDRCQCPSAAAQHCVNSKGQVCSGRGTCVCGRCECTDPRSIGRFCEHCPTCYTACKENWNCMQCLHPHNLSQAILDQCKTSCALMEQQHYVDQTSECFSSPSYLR
The description is as above.

Assay [3] deals with T3, recombinant mouse αvβ8 protein (PARS-17103) (murine, UniProt P43406 31-988; Q0VBD0 43-681, limits assumed).
T3 construct: Made in house; also called mu.aVb8.17103
T3 sequence (P43406 31-988 limits assumed, chain 1 of 2): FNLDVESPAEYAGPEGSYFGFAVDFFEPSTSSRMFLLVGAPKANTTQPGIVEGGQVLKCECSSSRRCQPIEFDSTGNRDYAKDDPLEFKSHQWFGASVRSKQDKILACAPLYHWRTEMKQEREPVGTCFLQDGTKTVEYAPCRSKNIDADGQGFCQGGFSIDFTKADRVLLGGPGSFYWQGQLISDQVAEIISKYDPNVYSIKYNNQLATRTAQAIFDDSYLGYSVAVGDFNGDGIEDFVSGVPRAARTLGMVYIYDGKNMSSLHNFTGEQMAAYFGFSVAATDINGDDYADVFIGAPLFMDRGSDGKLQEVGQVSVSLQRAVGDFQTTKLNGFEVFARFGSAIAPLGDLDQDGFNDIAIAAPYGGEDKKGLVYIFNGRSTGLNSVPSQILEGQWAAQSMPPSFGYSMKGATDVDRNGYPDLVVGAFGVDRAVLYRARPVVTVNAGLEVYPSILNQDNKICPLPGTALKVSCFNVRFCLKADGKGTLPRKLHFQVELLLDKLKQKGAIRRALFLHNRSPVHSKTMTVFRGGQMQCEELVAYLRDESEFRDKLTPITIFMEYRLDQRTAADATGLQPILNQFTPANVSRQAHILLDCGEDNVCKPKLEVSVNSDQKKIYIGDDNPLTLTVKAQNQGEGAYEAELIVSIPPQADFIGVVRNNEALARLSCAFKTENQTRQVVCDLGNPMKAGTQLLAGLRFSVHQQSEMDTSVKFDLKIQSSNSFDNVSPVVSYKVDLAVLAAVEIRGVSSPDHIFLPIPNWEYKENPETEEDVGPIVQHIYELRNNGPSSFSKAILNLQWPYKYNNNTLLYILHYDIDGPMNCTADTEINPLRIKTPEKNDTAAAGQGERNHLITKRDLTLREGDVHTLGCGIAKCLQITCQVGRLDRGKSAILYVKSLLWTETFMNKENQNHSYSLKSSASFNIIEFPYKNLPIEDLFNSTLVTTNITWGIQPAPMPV
T3 sequence (Q0VBD0 43-681 limits assumed, chain 2 of 2): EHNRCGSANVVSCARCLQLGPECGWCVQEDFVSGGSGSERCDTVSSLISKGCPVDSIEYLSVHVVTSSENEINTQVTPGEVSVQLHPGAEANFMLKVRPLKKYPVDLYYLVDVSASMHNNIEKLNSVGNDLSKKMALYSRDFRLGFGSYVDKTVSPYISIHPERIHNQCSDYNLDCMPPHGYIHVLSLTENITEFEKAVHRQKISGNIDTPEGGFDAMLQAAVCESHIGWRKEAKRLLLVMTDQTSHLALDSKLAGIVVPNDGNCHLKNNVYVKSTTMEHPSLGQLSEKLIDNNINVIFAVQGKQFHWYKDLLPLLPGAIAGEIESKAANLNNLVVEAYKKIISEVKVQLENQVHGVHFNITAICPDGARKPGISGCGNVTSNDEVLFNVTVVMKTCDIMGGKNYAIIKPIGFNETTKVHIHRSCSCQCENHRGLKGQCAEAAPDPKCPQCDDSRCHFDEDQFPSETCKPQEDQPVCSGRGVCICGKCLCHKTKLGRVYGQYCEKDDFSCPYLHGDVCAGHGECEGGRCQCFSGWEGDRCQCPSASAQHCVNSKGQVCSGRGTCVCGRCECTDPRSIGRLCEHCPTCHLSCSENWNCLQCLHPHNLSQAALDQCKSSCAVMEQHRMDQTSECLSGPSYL
The assay is described as above.

The target of another assay is T4, human αvβ5 (human, UniProt P06756 31-992; P18084 24-719).
T4 construct: Counter-screen integrin; construct not described; also called hu.aVb5; αV05
T4 sequence (P18084 24-719 limits assumed, one chain of several): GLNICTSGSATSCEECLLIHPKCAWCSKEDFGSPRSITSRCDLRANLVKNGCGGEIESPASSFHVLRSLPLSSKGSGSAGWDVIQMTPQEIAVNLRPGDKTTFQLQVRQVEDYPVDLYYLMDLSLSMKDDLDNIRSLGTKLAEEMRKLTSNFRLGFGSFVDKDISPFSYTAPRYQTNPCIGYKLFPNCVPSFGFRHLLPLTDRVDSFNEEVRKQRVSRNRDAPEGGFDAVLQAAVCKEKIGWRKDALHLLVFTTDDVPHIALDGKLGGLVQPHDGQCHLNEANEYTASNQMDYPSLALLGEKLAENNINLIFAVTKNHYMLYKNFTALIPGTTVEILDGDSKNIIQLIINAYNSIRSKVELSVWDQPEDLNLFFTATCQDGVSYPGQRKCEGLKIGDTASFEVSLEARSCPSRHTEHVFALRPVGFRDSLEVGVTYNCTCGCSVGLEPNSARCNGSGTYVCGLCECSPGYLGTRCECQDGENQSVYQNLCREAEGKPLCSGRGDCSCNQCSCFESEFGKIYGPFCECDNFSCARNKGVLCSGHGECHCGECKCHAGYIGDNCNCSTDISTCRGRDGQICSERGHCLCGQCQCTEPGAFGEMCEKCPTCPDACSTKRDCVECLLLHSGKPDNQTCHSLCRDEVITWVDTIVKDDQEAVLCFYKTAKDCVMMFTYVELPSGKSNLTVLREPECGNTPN
The assay can be described thus: SPR binding assay, sample hu.aVb1,3,5,6.

For the next assay, the target named is T5, human αvβ3 (human, UniProt P06756 31-992; P05106 27-718).
T5 construct: Counter-screen integrin; construct not described; also called hu.aVb3; αV03
T5 sequence (P05106 27-718 limits assumed, one chain of several): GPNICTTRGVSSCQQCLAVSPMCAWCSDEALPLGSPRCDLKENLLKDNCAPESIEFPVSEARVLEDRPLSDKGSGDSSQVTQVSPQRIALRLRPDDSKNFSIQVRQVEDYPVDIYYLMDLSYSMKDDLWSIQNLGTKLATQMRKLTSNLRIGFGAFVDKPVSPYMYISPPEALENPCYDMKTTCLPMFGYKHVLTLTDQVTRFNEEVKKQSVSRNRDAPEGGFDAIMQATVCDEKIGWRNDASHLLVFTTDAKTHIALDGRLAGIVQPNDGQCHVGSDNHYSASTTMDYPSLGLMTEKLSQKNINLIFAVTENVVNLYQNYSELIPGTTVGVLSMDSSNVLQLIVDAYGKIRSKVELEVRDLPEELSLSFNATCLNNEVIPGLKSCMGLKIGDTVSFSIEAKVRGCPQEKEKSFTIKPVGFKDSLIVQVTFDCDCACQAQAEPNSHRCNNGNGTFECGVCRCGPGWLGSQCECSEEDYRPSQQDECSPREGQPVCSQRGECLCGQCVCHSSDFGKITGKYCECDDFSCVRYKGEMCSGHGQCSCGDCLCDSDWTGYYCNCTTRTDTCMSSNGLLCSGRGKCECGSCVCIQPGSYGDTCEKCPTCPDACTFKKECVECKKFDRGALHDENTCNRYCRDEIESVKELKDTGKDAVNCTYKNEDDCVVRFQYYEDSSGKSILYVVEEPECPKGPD
The assay can be described thus: SPR binding assay, sample hu.aVb1,3,5,6.

In the next assay the target is T6, human αvβ1 (human, UniProt P06756 31-992; P05556 21-728).
T6 construct: Counter-screen integrin; construct not described; also called hu.aVb1; αVP1
T6 sequence (P05556 21-728 limits assumed, one chain of several): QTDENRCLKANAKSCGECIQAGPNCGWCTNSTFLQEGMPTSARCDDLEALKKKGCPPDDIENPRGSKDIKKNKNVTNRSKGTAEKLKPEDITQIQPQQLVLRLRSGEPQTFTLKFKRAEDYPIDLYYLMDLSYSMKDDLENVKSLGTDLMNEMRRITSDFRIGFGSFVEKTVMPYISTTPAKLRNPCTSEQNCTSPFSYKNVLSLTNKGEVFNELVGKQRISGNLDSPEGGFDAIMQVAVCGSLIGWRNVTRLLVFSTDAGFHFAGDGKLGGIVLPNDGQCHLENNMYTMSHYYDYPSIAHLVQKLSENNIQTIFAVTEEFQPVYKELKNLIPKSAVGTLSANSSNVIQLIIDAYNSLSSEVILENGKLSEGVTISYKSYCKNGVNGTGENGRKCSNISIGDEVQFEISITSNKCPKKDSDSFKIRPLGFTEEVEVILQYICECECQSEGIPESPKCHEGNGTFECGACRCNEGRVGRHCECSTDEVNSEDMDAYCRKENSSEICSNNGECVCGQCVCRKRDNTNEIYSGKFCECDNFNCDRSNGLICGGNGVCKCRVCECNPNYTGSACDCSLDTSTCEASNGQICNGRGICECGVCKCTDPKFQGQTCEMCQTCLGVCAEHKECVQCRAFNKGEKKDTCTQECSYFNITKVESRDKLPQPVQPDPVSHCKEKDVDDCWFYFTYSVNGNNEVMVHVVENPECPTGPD
The assay can be described thus: SPR binding assay, sample hu.aVb1,3,5,6.

A further assay deals with T7, human αvβ6 (human, UniProt P06756 31-992; P18564 22-709).
T7 construct: Counter-screen integrin; construct not described; also called hu.aVb6; αV06
T7 sequence (P18564 22-709 limits assumed, one chain of several): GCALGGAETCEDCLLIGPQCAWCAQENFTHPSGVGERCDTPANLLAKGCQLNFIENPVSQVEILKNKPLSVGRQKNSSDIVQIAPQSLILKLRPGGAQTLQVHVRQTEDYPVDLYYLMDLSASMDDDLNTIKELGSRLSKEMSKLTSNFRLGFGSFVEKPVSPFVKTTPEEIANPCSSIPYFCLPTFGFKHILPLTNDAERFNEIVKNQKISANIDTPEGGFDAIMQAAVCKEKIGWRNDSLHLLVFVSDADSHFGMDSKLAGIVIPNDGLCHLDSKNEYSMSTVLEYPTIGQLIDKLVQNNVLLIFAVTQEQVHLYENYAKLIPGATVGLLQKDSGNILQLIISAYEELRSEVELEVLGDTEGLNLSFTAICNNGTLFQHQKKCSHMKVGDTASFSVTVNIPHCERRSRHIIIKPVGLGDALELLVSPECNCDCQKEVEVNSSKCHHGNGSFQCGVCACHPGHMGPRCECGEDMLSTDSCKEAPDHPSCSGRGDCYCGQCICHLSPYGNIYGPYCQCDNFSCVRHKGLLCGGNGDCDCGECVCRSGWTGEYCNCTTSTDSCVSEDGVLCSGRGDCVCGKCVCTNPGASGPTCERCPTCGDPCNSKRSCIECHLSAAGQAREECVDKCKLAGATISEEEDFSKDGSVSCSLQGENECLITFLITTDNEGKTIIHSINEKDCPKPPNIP
The assay can be described thus: SPR binding assay, sample hu.aVb1,3,5,6.

Assay [4] addresses T2, recombinant human αvβ8 protein …. Put plainly: SPR binding assay, experiment 2, antibody as ligand, aVb8 as sample.
Assay [5] has as its target T3, recombinant mouse αvβ8 protein …. The assay is described as above.
A further assay deals with T8, cyno.aVb8.13650 (cynomolgus, UniProt A0A2K5WCD3 31-992; G7P0S0 43-684).
T8 construct: Carries another lot/construct number than cyno.aVb8-19393; kept apart; also called cynomolgus αvβ8
The description is as above.

B1: Hu.aVb8-92.H13L1 (aVb8-92.H13L1.hIgG1.LALAPG) (antibody, V domains shown)
VH: EQQLLESGGGLVQPGGSLRLSCAASGFSLSSYAMGWVRQAPGKGLEWIGVIRKDDNTYYGNWAKGRFTISRDSSKNTLYLQMNSLRAEDTAVYFCARALNTYVGFPYFNIWGPGTLVTVSS
VL: DAVLTQSPDSLAVSLGERATINCQSIKSVGDNKWLAWYQQKPGQPPKLLIYDASDLASGVPDRFSGSGSRTDFTLTISSLQAEDVAVYYCAGSVSSGDSGFGGGTKVEIKR
notes: Human IgG1 LALAPG; also called PARS-20463-65 (IH) aVb8-92.H13L1.hIgG1.LALAPG; humanized αvβ8-92
In the case of B1, the Kd worked out at 11.1 nM in assay [1]; 10.1 nM in assay [2]; 9.91 nM in assay [3]; 2.95 nM in assay [4]; 3.42 nM in [5]; 12.9 nM in the assay with cyno.aVb8.13650. The koff came to 0.000284 s⁻¹ in [1]; 0.000283 s⁻¹ in assay [2]; 0.000311 s⁻¹ in [3]; 0.000195 s⁻¹ in [4]; 0.000236 s⁻¹ in assay [5]; 0.000443 s⁻¹ with cyno.aVb8.13650. For the same molecule, the kon is 25500 M⁻¹ s⁻¹ in assay [1]; 28000 M⁻¹ s⁻¹ in assay [2]; 31400 M⁻¹ s⁻¹ in [3]; 66100 M⁻¹ s⁻¹ in assay [4]; 69100 M⁻¹ s⁻¹ in [5]; 34500 M⁻¹ s⁻¹ with cyno.aVb8.13650. Further, the binding result in the assay with human αvβ5, with human αvβ3, in the assay with human αvβ1 and in the assay with human αvβ6 was “no binding” throughout.
